Test: soluble on expression in E. coli; label from the status in PepcDB or PDB records

Soluble on expression in E. coli, soluble:
MTSSTETTSTTPQVAVNDIGNEEAFLAAIDETIKYFNDGDIVDGVIVKVDRDEVLLDIGYKTEGVIPSRELSIKHDVDPNEVVKVGDEIEALVLQKEDKEGRLILSKKRAQYERAWGTIEKIKEEDGIVTGTVIEVVKGGLILDIGLRGFLPASLVEMRRVRDLQPYVGKELEAKIIELDKNRNNVVLSRRAWLEQTQSEVRQTFLTTLQKGQVRSGVVSSIVNFGAFVDLGGVDGLVHVSELSWKHIDHPSEVVEVGQEVTVEVLDVDMDRERVSLSLKATQEDPWQQFARTHQIGQVVPGKVTKLVPFGAFVRVDEGIEGLVHISELAERHVEIPEQVVQVNDEIFVKVIDIDLERRRISLSLKQANEAFGGDPASVEFDPTLYGMAASYDDQGNYIYPEGFDPETNDWLEGFESQREVWETQYAEAQQRFEQHQAQVIKSREADAQAEAEGAAAPAAGGSGAGVSGGSYSSESDDNSGALASDEALAALREKLAGGQSLEHHHHHH
MTENFAQLFEESLKEIETRPGSIIRGTIVAVNKDNVIVDAGLKSESVISIDQFKNAAGEVEVVVGDEIDVALDATDDGFGETILSREKAKRHEAWQVLEKAYEEKETVIGVINGKVKGGFTVEVSDIRAFLPGSLVDVRPVRDTAHLEGKPLEFKVIKLDQKRNNVVVSRRAVIEAEGSAERDELLESLAEGQEVKGIVKNLTDYGAFVDLGGIDGLLHITDMAWKRVKHPSEIVNVGDEIQVKVLKFDRERTRVSLGMKQLGEDPWVAIANRYPEGSKLSGRVTNLTDYGCFVEIQEGVEGLVHVSEMDWTNKNIHPSKVVNLGDTVEVLVLEIDEERRRISLGLKQCIANPWEEFAKNFNKGDKVSGKIKSITDFGIFIGLDGGIDGLVHLSDISWAGGEEAVRDYKKGDEIDAIVLQVDPERERISLGVKQAEDDPFNMYLADKKKGAIVTGKVTEVDAKGATILLAESVEGYLRVSDISVERIEDASTVLKVGDDVEARFMGVDRKNRTISLSIKAKDQADEREAMDNLNQVEETGLSAMAAAFKNAKNLEHHHHHH
MTIKNVICDIDGVLMHDNVAVPGAAEFLHGIMDKGLPLVLLTNYPSQTGQDLANRFATAGVDVPDSVFYTSAMATADFLRRQEGKKAYVVGEGALIHELYKAGFTITDVNPDFVIVGETRSYNWDMMHKAAYFVANGARFIATNPDTHGRGFYPACGALCAGIEKISGRKPFYVGKPSPWIIRAALNKMQAHSEETVIVGDNLRTDILAGFQAGLETILVLSGVSSLDDIDSMPFRPSWIYPSVAEIDVI

Soluble on expression in E. coli, not soluble:
MPLALGGTPFEKHVWARLMEIPLGQTRAYGDLAREMERPEVVRAVGRANGANQLAIVVPCHRILGADGSLTGYGGGLWRKQWLLRHEEKIGTETRMEETALEHHHHHH
MAHHHHHHMWINKIGNKSASFINHKHFHPGNIKNLERVWLAEENEKKRKEEEEKYLKKREEQYKLYELKKQLRKNEEENKNDVHNILYDINNELKKENSFKKKILHNSISNETTPNENIVNKILIRSKYDEDIFLKNHRSIYGSYYDKEKNKWGFKCCTNIDKNSKCTNNTNCSYNLNNNLIKKDLTKSKNKKKKKKKLIVDNSITAVLNKI
MTPNKEDYLKCIYEIGIDLHKITNKEIAARMQVSPPAVTEMIKRMKSENLILKDKECGYLLTDLGLKLVSELYRKHRLIEVFLVHHLDYTSDQIHEEAEVLEHTVSDLFVERLDKLLGFPKTCPHGGTIPAKGELLVEINNLPLADIKEAGAYRLTRVHDSFDILHYLDKHSLHIGDQLQVKQFDGFSNTFTILSNDEDLQVNMDIAKQLYVEKIN
MKFPGKRKSKHYFPVNARDPLLQQFQPENETSAAWVVGIDQTLVDIEAKVDDEFIERYGLSAGHSLVIEDDVAEALYQELKQKNLITHQFAGGTIGNTMHNYSVLADDRSVLLGVMCSNIEIGSYAYRYLCNTSSRTDLNYLQGVDGPIGRCFTLIGESGERTFAISPGHMNQLRAESIPEDVIAGASALVLTSYLVRCKPGEPMPEATMKAIEYAKKYNVPVVLTLGTKFVIAENPQWWQQFLKDHVSILAMNEDEAEALTGESDPLLASDKALDWVDLVLCTAGPIGLYMAGFTEDEAKRKTQHPLLPGAIAEFNQYEFSRAMRHKDCQNPLRVYSHIAPYMGGPEKIMNTNGAGDGALAALLHDITANSYHRSNVPNSSKHKFTWLTYSSLAQVCKYANRVSYQVLNQHSPRLTRGLPEREDSLEESYWDR
MGSDKIHHHHHHMTALVCLTGSSCTDDENNGQGNNIIYGENIIGNGEQTFEIKDHQYLKRGTYLMKGWCYVTYGSTLTIEAGTVIKGDKETRAALIVEPGGKLIARGTVDAPIVFTSEMPAGKRKPGDWGGLILCGYARNNEDIMQIEGGPRTMHGGPNNADNSGVLSYVRVEFAGYPFKKNQEINGITFGSVGNGTQIDHLQVSYANDDAFEWFGGTVHAEYLVAYHCWDDDFDIDNGYSGTCRHLLGIRHPRIADITGSHAFECSNNGTNTPATPTTAATFEDVTIYGPASGDASFVNHPDFINGGGLRPENESMLGLFGAALYMGNNTSVTFRNCRISGYPSDMEGTPASADNVVFSEREETGYPEWTQGWCNFNPQETEY
MGSDKIHHHHHHMNTIGERLKYLRKLNNLTQKQVAEKTGVQRGNISHYEKNDFLPSRVALISFANFFKTNYDWIVYGKGAIPKSIDEVMYAKSNSIAECNNGAAVDFSKRLIFTMKYFHETIDGLCLKLNISKDIFHEILIKKNVSAFDLFKICNYFNVSMDWMFNGNITYLKSDAKLQQAYLMNSKGNKPLSYDNHGMVQCTCEEKKLLIFFENLNTKDKSLVIDILNSVNNQASMDIQKLIK
MGSDKIHHHHHHMNLRHLVFFKELARTQHMAKAAENLGISQPSLSYAIKKLEHELGVPLFEADGRNIKLTSIGGVYLKYVTATLNDLSQGNELVKQLMDPDTGHVKLGFTYTLGQQLVPELLSHFKNQSENQAITFELGQGNSGVLLQALADEKYDIVLASNVDRLGEQLTAHLFDFIPLVQQEIVAVVPNDHPAVQKNPLHVEDLAPYPMILFSQNSGLRPLIDQILSAAHVQPKVAYEVEEDYTMAGFVRYNMGVALMPYLPLLNPERVQIKHLADQPLQHQIYLVVRRSGFITPAVHRFQEFIRSYCWQHYTNQERSI
MGSDKIHHHHHHAQDDANCNSNSSISHEAVKAGNFKDAYTPWKAVLENCPTLRFYTFTDGYKILKGLLGQIKDRNSAEYKKYFDELMNTHDLRMKYTQEFLGKGVKVSSEDEALGIKAVDYIAFAPKVDVNQAYDWLKKSVDAAKAESAAATLFYFLQMSHDKLKEDPAHKEQFIQDYLAASEYADDAIAAADKESVKKAFGGIKDNLVALFINSGTADCESLQGIYGPKVETNQTDLNYLKKVISIMKMMKCTDSDAYQQASFYVYKIEPSAEAATGCAYQAYKKGDIDGSVKFFDEAINLETDNAKKAEKAYAAASVLTTAKKLSQARSYAQKAISFNENYGAPYILIANLYAMSPNWSDESALNKCTYFAVIDKLQKAKSVDPSVTEEVNKMISRYSAYTPQAKDLFMLGYKAGDRITIGGWIGESTTIR
MGSDKIHHHHHHMPSIRVVNLKKYFGKVKAVDGVSFEVKDGEFVALLGPSGCGKTTTLLMLAGIYKPTSGEIYFDDVLVNDIPPKYREVGMVFQNYALYPHMTVFENIAFPLRARRISKDEVEKRVVEIARKLLIDNLLDRKPTQLSGGQQQRVALARALVKQPKVLLFDEPLSNLDANLRMIMRAEIKHLQQELGITSVYVTHDQAEAMTMASRIAVFNQGKLVQYGTPDEVYDSPKNMFVASFIGNPPTNFLRDFSVSVENKQTILKRDDVIIKLPEPVDVKLKEVVVGIRPEHCRISRERVENSIPGVVYVVEPLGRDIIVNVKTEKGEIIKVFGDTGKAPQPGENVFLVPDLRKIHLFNPETEETIL
MASKHAAKTVDPKDLSPAWKVLQMKLNEEKAEKEKAAKAEKEANPEGSDDGFTKVQTKKQKQKMNRKRRAQEALAAASEVKRVHHDIPVVIEDSERGELTKVIAIDCEYVGAGMGGTTDILARISIVNELGKIVYDKFVKPTEKVTDFRTAVSGIRPENMIKAIPFDRAQTEVSKLIDGRIVIGHAVHNDFRVLKLNHIRKLTRDTAKCTILKNMANHHGTPSLKKLAKEVLGIEIQRGEHDSITDARVALRLYEAVKKQWEAEIKRYR
